Source: publication PMC7845616, “Convergent Evolution of a Promiscuous 3-Hydroxypropionyl-CoA Dehydratase/Crotonyl-CoA Hydratase in Crenarchaeota and Thaumarchaeota” (mSphere, 2021)

Legend:
[1] = substrate: C=C(C)C(=O)SCCNC(=O)CCNC(=O)[C@H](O)C(C)(C)COP(=O)(O)OP(=O)(O)OC[C@H]1O[C@@H](n2cnc3c(N)ncnc32)[C@H](O)[C@@H]1OP(=O)(O)O; assay: UHPLC of 3-hydroxy-2-methylpropionyl-CoA formed; format: biochemical, Metallosphaera sedula; conditions: 100 mM Tris-HCl pH 7.8, 65°C
Source text: UHPLC of 3-hydroxy-2-methylpropionyl-CoA formed on Msed_0566

[2] = substrate: C=CC(=O)SCCNC(=O)CCNC(=O)[C@H](O)C(C)(C)COP(=O)(O)OP(=O)(O)OC[C@H]1O[C@@H](n2cnc3c(N)ncnc32)[C@H](O)[C@@H]1OP(=O)(O)O; assay: UHPLC of 3-hydroxypropionyl-CoA formed; format: biochemical, Metallosphaera sedula; conditions: 100 mM Tris-HCl pH 7.8, 65°C
Source text: UHPLC of 3-hydroxypropionyl-CoA formed on Msed_0566

[3] = substrate: C/C=C/C(=O)SCCNC(=O)CCNC(=O)[C@H](O)C(C)(C)COP(=O)(O)OP(=O)(O)OC[C@H]1O[C@@H](n2cnc3c(N)ncnc32)[C@H](O)[C@@H]1OP(=O)(O)O; assay: UHPLC of 3-hydroxybutyryl-CoA formed; format: biochemical, Metallosphaera sedula; conditions: 100 mM Tris-HCl pH 7.8, 65°C
Source text: UHPLC of 3-hydroxybutyryl-CoA formed on Msed_0566

[4] = substrate: CCCCC/C=C/C(=O)SCCNC(=O)CCNC(=O)[C@H](O)C(C)(C)COP(=O)(O)OP(=O)(O)OC[C@H]1O[C@@H](n2cnc3c(N)ncnc32)[C@H](O)[C@@H]1OP(=O)(O)O; assay: UHPLC of 3-hydroxyoctanoyl-CoA formed; format: biochemical, Metallosphaera sedula; conditions: 100 mM Tris-HCl pH 7.8, 65°C
Source text: UHPLC of 3-hydroxyoctanoyl-CoA formed on Msed_0566

[5] = substrate: CCCCC/C=C/C(=O)SCCNC(=O)CCNC(=O)[C@H](O)C(C)(C)COP(=O)(O)OP(=O)(O)OC[C@H]1O[C@@H](n2cnc3c(N)ncnc32)[C@H](O)[C@@H]1OP(=O)(O)O; assay: UHPLC of 3-hydroxyoctanoyl-CoA formed; format: biochemical, Nitrosopumilus maritimus; conditions: 100 mM Tris-HCl pH 7.8, 30°C
Source text: UHPLC of 3-hydroxyoctanoyl-CoA formed on Nmar_1308

[6] = substrate: C=CC(=O)SCCNC(=O)CCNC(=O)[C@H](O)C(C)(C)COP(=O)(O)OP(=O)(O)OC[C@H]1O[C@@H](n2cnc3c(N)ncnc32)[C@H](O)[C@@H]1OP(=O)(O)O; assay: UHPLC of 3-hydroxypropionyl-CoA formed; format: biochemical, Nitrosopumilus maritimus; conditions: 100 mM Tris-HCl pH 7.8, 30°C
Source text: UHPLC of 3-hydroxypropionyl-CoA formed on Nmar_1308

[7] = substrate: C/C=C/C(=O)SCCNC(=O)CCNC(=O)[C@H](O)C(C)(C)COP(=O)(O)OP(=O)(O)OC[C@H]1O[C@@H](n2cnc3c(N)ncnc32)[C@H](O)[C@@H]1OP(=O)(O)O; assay: UHPLC of 3-hydroxybutyryl-CoA formed; format: biochemical, Nitrosopumilus maritimus; conditions: 100 mM Tris-HCl pH 7.8, 30°C
Source text: UHPLC of 3-hydroxybutyryl-CoA formed on Nmar_1308

[8] = substrate: C[C@H](O)CC(=O)SCCNC(=O)CCNC(=O)[C@H](O)C(C)(C)COP(=O)(O)OP(=O)(O)OC[C@H]1O[C@@H](n2cnc3c(N)ncnc32)[C@H](O)[C@@H]1OP(=O)(O)O; assay: dehydration coupled to Ccr, UHPLC; format: biochemical, Nitrosopumilus maritimus; conditions: 100 mM Tris-HCl pH 7.8, 30°C, 1 mM NADPH, 50 mM NaHCO3, Ccr
Source text: (§1) dehydration coupled to Ccr, UHPLC on Nmar_1308

[9] = substrate: CC(C)(COP(=O)(O)OP(=O)(O)OC[C@H]1O[C@@H](n2cnc3c(N)ncnc32)[C@H](O)[C@@H]1OP(=O)(O)O)[C@@H](O)C(=O)NCCC(=O)NCCSC(=O)CCO; assay: dehydration coupled to Ccr, UHPLC; format: biochemical, Nitrosopumilus maritimus; conditions: 100 mM Tris-HCl pH 7.8, 30°C, 1 mM NADPH, 50 mM NaHCO3, Ccr
Source text: as §1

[10] = substrate: C/C=C/C(=O)SCCNC(=O)CCNC(=O)[C@H](O)C(C)(C)COP(=O)(O)OP(=O)(O)OC[C@H]1O[C@@H](n2cnc3c(N)ncnc32)[C@H](O)[C@@H]1OP(=O)(O)O; assay: UHPLC of 3-hydroxybutyryl-CoA formed; format: biochemical, Metallosphaera sedula; conditions: 100 mM Tris-HCl pH 7.8, 65°C; remark: listed apart in the source
Source text: UHPLC of 3-hydroxybutyryl-CoA formed on Msed_2001

[11] = substrate: C=CC(=O)SCCNC(=O)CCNC(=O)[C@H](O)C(C)(C)COP(=O)(O)OP(=O)(O)OC[C@H]1O[C@@H](n2cnc3c(N)ncnc32)[C@H](O)[C@@H]1OP(=O)(O)O; assay: UHPLC of 3-hydroxypropionyl-CoA formed; format: biochemical, Metallosphaera sedula; conditions: 100 mM Tris-HCl pH 7.8, 65°C; remark: listed apart in the source
Source text: UHPLC of 3-hydroxypropionyl-CoA formed on Msed_2001

[12] = substrate: CCCCC/C=C/C(=O)SCCNC(=O)CCNC(=O)[C@H](O)C(C)(C)COP(=O)(O)OP(=O)(O)OC[C@H]1O[C@@H](n2cnc3c(N)ncnc32)[C@H](O)[C@@H]1OP(=O)(O)O; assay: UHPLC of 3-hydroxyoctanoyl-CoA formed; format: biochemical, Metallosphaera sedula; conditions: 100 mM Tris-HCl pH 7.8, 65°C; remark: listed apart in the source
Source text: UHPLC of 3-hydroxyoctanoyl-CoA formed on Msed_2001

[13] = substrate: C[C@H](O)CC(=O)SCCNC(=O)CCNC(=O)[C@H](O)C(C)(C)COP(=O)(O)OP(=O)(O)OC[C@H]1O[C@@H](n2cnc3c(N)ncnc32)[C@H](O)[C@@H]1OP(=O)(O)O; assay: dehydration coupled to Ccr, UHPLC; format: biochemical, Metallosphaera sedula; conditions: 100 mM Tris-HCl pH 7.8, 42°C, 1 mM NADPH, 50 mM NaHCO3, Ccr
Source text: (§2) dehydration coupled to Ccr, UHPLC on Msed_2001

[14] = substrate: CC(C)(COP(=O)(O)OP(=O)(O)OC[C@H]1O[C@@H](n2cnc3c(N)ncnc32)[C@H](O)[C@@H]1OP(=O)(O)O)[C@@H](O)C(=O)NCCC(=O)NCCSC(=O)CCO; assay: dehydration coupled to Ccr, UHPLC; format: biochemical, Metallosphaera sedula; conditions: 100 mM Tris-HCl pH 7.8, 42°C, 1 mM NADPH, 50 mM NaHCO3, Ccr
Source text: as §2

[15] = substrate: C=CC(=O)SCCNC(=O)CCNC(=O)[C@H](O)C(C)(C)COP(=O)(O)OP(=O)(O)OC[C@H]1O[C@@H](n2cnc3c(N)ncnc32)[C@H](O)[C@@H]1OP(=O)(O)O; assay: UHPLC of 3-hydroxypropionyl-CoA formed; format: biochemical, Syntrophothermus lipocalidus; conditions: 100 mM Tris-HCl pH 7.8, 42°C
Source text: UHPLC of 3-hydroxypropionyl-CoA formed on Slip_2089

[16] = substrate: CCCCC/C=C/C(=O)SCCNC(=O)CCNC(=O)[C@H](O)C(C)(C)COP(=O)(O)OP(=O)(O)OC[C@H]1O[C@@H](n2cnc3c(N)ncnc32)[C@H](O)[C@@H]1OP(=O)(O)O; assay: UHPLC of 3-hydroxyoctanoyl-CoA formed; format: biochemical, Syntrophothermus lipocalidus; conditions: 100 mM Tris-HCl pH 7.8, 42°C
Source text: UHPLC of 3-hydroxyoctanoyl-CoA formed on Slip_2089

[17] = substrate: C/C=C/C(=O)SCCNC(=O)CCNC(=O)[C@H](O)C(C)(C)COP(=O)(O)OP(=O)(O)OC[C@H]1O[C@@H](n2cnc3c(N)ncnc32)[C@H](O)[C@@H]1OP(=O)(O)O; assay: UHPLC of 3-hydroxybutyryl-CoA formed; format: biochemical, Syntrophothermus lipocalidus; conditions: 100 mM Tris-HCl pH 7.8, 42°C
Source text: UHPLC of 3-hydroxybutyryl-CoA formed on Slip_2089

[18] = substrate: C=C(C)C(=O)SCCNC(=O)CCNC(=O)[C@H](O)C(C)(C)COP(=O)(O)OP(=O)(O)OC[C@H]1O[C@@H](n2cnc3c(N)ncnc32)[C@H](O)[C@@H]1OP(=O)(O)O; assay: UHPLC of 3-hydroxy-2-methylpropionyl-CoA formed; format: biochemical, Syntrophothermus lipocalidus; conditions: 100 mM Tris-HCl pH 7.8, 42°C
Source text: UHPLC of 3-hydroxy-2-methylpropionyl-CoA formed on Slip_2089

[19] = substrate: C[C@H](O)CC(=O)SCCNC(=O)CCNC(=O)[C@H](O)C(C)(C)COP(=O)(O)OP(=O)(O)OC[C@H]1O[C@@H](n2cnc3c(N)ncnc32)[C@H](O)[C@@H]1OP(=O)(O)O; assay: dehydration coupled to Ccr, UHPLC; format: biochemical, Syntrophothermus lipocalidus; conditions: 100 mM Tris-HCl pH 7.8, 42°C, 1 mM NADPH, 50 mM NaHCO3, Ccr
Source text: (§3) dehydration coupled to Ccr, UHPLC on Slip_2089

[20] = substrate: CC(C)(COP(=O)(O)OP(=O)(O)OC[C@H]1O[C@@H](n2cnc3c(N)ncnc32)[C@H](O)[C@@H]1OP(=O)(O)O)[C@@H](O)C(=O)NCCC(=O)NCCSC(=O)CCO; assay: dehydration coupled to Ccr, UHPLC; format: biochemical, Syntrophothermus lipocalidus; conditions: 100 mM Tris-HCl pH 7.8, 42°C, 1 mM NADPH, 50 mM NaHCO3, Ccr
Source text: as §3

B1: Msed_0566 (Metallosphaera sedula DSM 5348) (protein)
chain: MDVILEKRKGYLLLTFNTGGRYNVFTTRFMIEMIDTLSEVEKIRDPHYLVIKGENGNFGAGADVKELLKANGDKEYAKVYFGHMKDLFVKMLSLNKVTIGLIEGVAYGASMELLLALDIVIAKRGTKFAAPGGKLGVFPPVLVSIGPYLLGHRTSRKLAMLGEELDTQGAINAGLIDYEVDDLEKGLLELLNRLKVMSPSAQVRMRKLILQSLIPHLEKAFDELATQVTSDEAREGISSFFSKTSPSWSSVGFS
notes: pET16b, His10-tagged, expressed in E. coli Rosetta 2 (DE3), Ni-NTA purified
Km [1]: 140 ± 30 µM | kcat/Km [1]: 2000 M⁻¹ s⁻¹ | Km [2]: 37 ± 2 µM | kcat/Km [2]: 39000 M⁻¹ s⁻¹ | Km [3]: 80 ± 30 µM | kcat/Km [3]: 19000 M⁻¹ s⁻¹ | Km [4]: 180 ± 60 µM | kcat/Km [4]: 16000 M⁻¹ s⁻¹

B2: Nmar_1308 (Nitrosopumilus maritimus SCM1) (protein)
chain: MSLVTTSTSDGICTVKINRPDKLNAMNTDVAKELIKTFEELNHNDDVKVIILTGEGEKAFSAGADIEYMSKISADESVEYAKTGQLVTATVELVKQPTIAAVNGFALGGGCELAMSCDIRIAADTAKLGQPEVTIGVPPGWGGTQRLMRIVGIAKAKELVYTGKMIKAEEAKEIGLVNHVVPLASLQEEALKMAQQIAGNSTMGVQMSKVAINKGRNADLDTGLGLEILAWRNCFTHPDRQERMTAFVNKSKK
notes: as for B1
Km [5]: 120 ± 20 µM | Vmax [5]: 47 µmol/min/mg | kcat/Km [5]: 198000 M⁻¹ s⁻¹ | Km [6]: 710 ± 70 µM | Vmax [6]: 11400 ± 392 µmol/min/mg | kcat/Km [6]: 8.09e+06 M⁻¹ s⁻¹ | Km [7]: 450 ± 30 µM | Vmax [7]: 3790 ± 111 µmol/min/mg | kcat/Km [7]: 4.25e+06 M⁻¹ s⁻¹ | Km [8]: 360 ± 60 µM | Vmax [8]: 1520 ± 92 µmol/min/mg | kcat/Km [8]: 2.12e+06 M⁻¹ s⁻¹ | Km [9]: 170 ± 30 µM | Vmax [9]: 38 µmol/min/mg | kcat/Km [9]: 113000 M⁻¹ s⁻¹

B3: Msed_2001 (Metallosphaera sedula DSM 5348) (protein)
chain: MEFETIETKKEGNLFWITLNRPDKLNALNAKLLEELDRAVSQAESDPEIRVIIITGKGKAFCAGADITQFNQLTPAEAWKFSKKGREIMDKIEALSKPTIAMINGYALGGGLELALACDIRIAAEEAQLGLPEINLGIYPGYGGTQRLTRVIGKGRALEMMMTGDRIPGKDAEKYGLVNRVVPLANLEQETRKLAEKIAKKSPISLALIKEVVNRGLDSPLLSGLALESVGWGVVFSTEDKKEGVSAFLEKREPTFKGK
notes: pET16b, N-terminal His10-tag, expressed in E. coli Rosetta 2 (DE3), heat precipitation and Ni-NTA purified
Km [10]: 80 ± 10 µM | kcat/Km [10]: 3.16e+07 M⁻¹ s⁻¹ | Km [11]: 140 ± 10 µM | kcat/Km [11]: 9.94e+07 M⁻¹ s⁻¹ | Km [12]: 48 ± 5 µM | kcat/Km [12]: 3.94e+07 M⁻¹ s⁻¹ | Km [13]: 34 ± 4 µM | kcat/Km [13]: 4.38e+07 M⁻¹ s⁻¹ | Km [14]: 160 ± 20 µM | kcat/Km [14]: 3.26e+06 M⁻¹ s⁻¹

B4: Slip_2089 (Syntrophothermus lipocalidus DSM 12680) (protein)
chain: MEDKQKSVKCSIDDQGIAIVTINRPHALNALNREVFTELGKVFDELRDNPRARVVVLTGEGQKAFAAGSDITEMKECSVLEAREFAMLANRTQGKIETFPKPVIAAVNGFALGGGCEVAMACDIRIASSNAKFGQPEINLGIIPGGGGTQRLARLVGLGRAKELVYSGGIIDAQRAYEIGLVNKVVPAEALMSEALGLAAKIASKSMPVLMLAKVAFNHGFSMDLDKALQFEIECFAECFGTDDHTEGMSAFIERREPAFKDK
notes: as for B1
Km [15]: 400 ± 50 µM | kcat/Km [15]: 138000 M⁻¹ s⁻¹ | Km [16]: 210 ± 40 µM | kcat/Km [16]: 562000 M⁻¹ s⁻¹ | Km [17]: 160 ± 20 µM | kcat/Km [17]: 143000 M⁻¹ s⁻¹ | Km [18]: 1010 ± 220 µM | kcat/Km [18]: 500 M⁻¹ s⁻¹ | Km [19]: 1310 ± 310 µM | kcat/Km [19]: 41000 M⁻¹ s⁻¹ | Km [20]: 350 ± 60 µM | kcat/Km [20]: 2000 M⁻¹ s⁻¹
